# Measured values as given in US20250144186A1, “NOVEL THERAPEUTIC USES OF GARDNERELLA ENDOLYSINS” (priority 2022, published 2025).
# Where “and” joins values, the source holds several entries; their conditions need not be identical. Equal entries are not always repeated.
# How the values were obtained:
# passaged G. vaginalis = experiment: MIC on strains passaged with MDZ or MDZ-OH; assay type: cell-based, Gardnerella vaginalis; settings: 48 h incubation
# Protocol: (§1) The minimum inhibitory concentration (MIC), which is a standard measure of the activity of antimicrobials, was determined according to the Clinical and Laboratory Standards Institute protocol (2018) Methods for Antimicrobial Susceptibility Testing of Anaerobic Bacteria (Carpenter et al., 2018). […] Controls for growth in the absence of antimicrobials were also included. OD600 was recorded by a microplate reader (Tecan, Grodig, Austria) after incubation at 37° C. for 48 h or, for some fast-growing strains, after incubation for 24 h. Absence of growth was defined as OD600≤0.14. […] MIC readout and MBC99.5 spotting were performed after 72 h incubation for H2B10B11. MBC99.5 is the minimum concentration of an antibacterial agent that results in bacterial death of all cells in suspension up to a defined limit of detection, resulting in killing of at least 99.5% of bacteria.
# (§2) The final volume of the reaction was 100 µL and the reactions were performed in triplicate in 384-well plates. The OD600 was measured using a microplate reader (Tecan, Grodig, Austria) to generate timepoint 0 h baseline values. The reactions were incubated anaerobically for 24 h, then the OD600 was measured again, and the MIC was measured as the lowest concentration with OD600<0.14. […] This process was repeated for a maximum of 25 rounds. In each round, the input CFU/mL was determined by quantitative plating.
# (§3) The susceptibility of Gardnerella strains before and after 8 to 9-times passaging with sub-MIC concentrations of MZD or MDZ-OH is shown in Table 4 below. All MICs determined after 48 h of incubation.
# All Gardnerella = experiment: MIC assessment in suspension, panel of 22 strains; assay type: cell-based, Gardnerella spp.; settings: N=22 strains
# Protocol: as §1, with “H2B10B11.” for “H2B10B11. MBC99.5 is the minimum concentration of an antibacterial agent that results in bacterial death of all cells in suspension up to a defined limit of detection, resulting in killing of at least 99.5% of bacteria.”
# (§4) However, topical intravaginal antibiotic administration is recommended for BV therapy, which allows to reach concentrations of active ingredients in the mg/mL range. […] Abbreviations: n.d., not determined; SJHB, St. Jan Hospital Bruges.
# (§5) MIC90 is defined as the MIC value for 90% of the tested strains. For PM-477 (H2B10), the resistance breakpoint is not defined, therefore a “% resistant” is not defined (n.d.).
# [1] = system: passaged G. piotii biofilm; experiment: MBEC on biofilms of passaged strains; assay type: cell-based, Gardnerella piotii; settings: G. piotii (UGent 18.01T) passaged with MDZ-OH
# Protocol: (§6) Gardnerella spp. (see figures for strain specification) was resuspended in brain heart infusion broth supplemented with 2% (w/v) gelatin, 0.5% yeast extract (w/v), 0.1% starch (w/v) and 0.25% glucose (w/v) (sBHIG). Passaged strains were resuspended in unbuffered NYCB supplemented with 1% glucose (w/v) (sNYCB). The OD600 was set to 0.1 (approx. 10^7-10^8 CFU/mL) and the cell suspension was diluted 1:10 in growth medium as input for biofilm formation. A total of 200 μL of the respective bacterial suspensions was added to 96-well flat bottom plates (tissue-culture treated, Sigma-Aldrich). The biofilms were grown under anaerobic conditions at 37° C. for 40 to 72 hours, depending on the isolate. Subsequently, the supernatant was removed, and the biofilm was treated with antimicrobials dissolved in sBHIG (at pH 5 for treatment with PM-477 (H2B10), and unbuffered for treatment with antibiotics) in 100 μL and incubated anaerobically at 37° C. for another 24 hours. After the treatment, the biofilms were washed twice with 200 μL 1x PBS and dissolved by vigorous pipetting (40x up and down). Serial dilutions of the dissolved cells were spotted on chocolate agar plates. The plates were incubated anaerobically for two to three days and the minimum biofilm eradication concentration (MBEC) of the endolysin or the antibiotics in use were calculated.
# (§7) All MICs determined after 48 h of incubation.
# passaged G. swidsinskii = experiment: MIC on strains passaged with MDZ-OH; assay type: cell-based, Gardnerella swidsinskii; settings: 48 h incubation
# Protocol: as §1, §2, §3
# Gardnerella swidsinskii = experiment: microbe, parasite or virus in culture; assay type: cell-based; settings: for MIC before passaging: 48 h incubation
# Protocol: as §1, with “H2B10B11.” for “H2B10B11. MBC99.5 is the minimum concentration of an antibacterial agent that results in bacterial death of all cells in suspension up to a defined limit of detection, resulting in killing of at least 99.5% of bacteria.”
# as §4, §5
# Gardnerella vaginalis = experiment: microbe, parasite or virus in culture; assay type: cell-based; settings: for MIC before passaging: 48 h incubation
# Protocol: as §1, with “H2B10B11.” for “H2B10B11. MBC99.5 is the minimum concentration of an antibacterial agent that results in bacterial death of all cells in suspension up to a defined limit of detection, resulting in killing of at least 99.5% of bacteria.”
# as §4, §5
# [2] = system: passaged G. swidsinskii biofilm; experiment: MBEC on biofilms of passaged strains; assay type: cell-based, Gardnerella swidsinskii
# Protocol: as §6, §7
# passaged G. piotii = experiment: MIC on strains passaged with MDZ-OH; assay type: cell-based, Gardnerella piotii; settings: G. piotii (UGent 18.01T) passaged with MDZ-OH, 48 h incubation
# Protocol: as §1
# The final volume of the reaction was 100 µL and the reactions were performed in triplicate in 384-well plates. The OD600 was measured using a microplate reader (Tecan, Grodig, Austria) to generate timepoint 0 h baseline values. […] In each round, the input CFU/mL was determined by quantitative plating.
# as §3
# [3] = system: MDZ or MDZ-OH passaged Gardnerella strains grown as biofilm; experiment: MBEC on biofilms of the six passaged strains, summary; assay type: cell-based, Gardnerella spp.
# Protocol: as §6
# [4] = G. swidsinskii (GS 9838-1T) passaged with MDZ-OH
# [5] = G. swidsinskii (UGent BV 7.1) passaged with MDZ-OH
# [6] = Gardnerella swidsinskii, N=4 strains
molecule,measurement,setting,value
"PM-477: genetically engineered recombinant Gardnerella-specific endolysin, amino acid sequence SEQ ID NO: 1, His-tag cleaved off (protein, His-tag cleaved off; H2B10) SKRGIDVSEWQGDIDFNAVKASGVEFVIIRAGYGIGCKDKWFEQNYRKAKTCGLDVGAYWYSYANSGFEAAEEAQSCVNMLSGKSFEYPVYFDLEEKSQLNRGRAFCDSLITGFCNKLESCGYYAGFYTSLSTANNLVSAHVRNRYALWIAQWNTHCSYQGSYGLWQYSSSGSVPGVAGRVDMDYAYVDYPSIIKNVGLNGYKNGGSYTAPQISSIDEVAREVINGDWGNGNERKQRLTSAGYDYASVQNKVNELLGVKAYRKSVDELAREVIRGTWGNGSTRKQRLTQAGYDYNAVQKRVNELL",MIC passaged,passaged G. vaginalis; G. vaginalis (ATCC 14018T) passaged with sub-MIC MDZ,0.13 µg/mL
same,MIC passaged,passaged G. vaginalis; G. vaginalis (UGent 09.07) passaged 8 times with MDZ-OH,0.25 µg/mL
same,MIC passaged,passaged G. vaginalis; G. vaginalis (UGent BV50) passaged with MDZ-OH,0.25 µg/mL
same,MIC90,All Gardnerella,1 µg/mL
same,MIC Range,All Gardnerella; listed as PM-477 (H2B10),<0.03-1^ μg/mL
same,MBEC passaged,[1],<1 µg/mL
same,MIC passaged,passaged G. swidsinskii; [4],0.06 µg/mL
same,MIC passaged,passaged G. swidsinskii; [5],0.06 µg/mL
same,MBC99.5,Gardnerella swidsinskii; G. swidsinskii (BV7) UGent BV7.1,0.25 µg/mL
same,MIC,"Gardnerella swidsinskii; G. swidsinskii (BV7) UGent BV7.1, suspension",0.25 µg/mL
same,MBC99.5,Gardnerella swidsinskii; G. swidsinskii (BV139) UGent BV139.3,0.125 µg/mL
same,MIC before passaging,Gardnerella swidsinskii; G. swidsinskii (GS 9838-1T),0.03 µg/mL
same,MBC99.5,Gardnerella swidsinskii; G. swidsinskii (Gs23) GS 10234,0.125 µg/mL
same,MIC,"Gardnerella swidsinskii; G. swidsinskii (Gs23) GS 10234, suspension",0.063 µg/mL
same,MBC99.5,Gardnerella swidsinskii; G. swidsinskii (Gs24) GS 9838-1(T),0.06 µg/mL
same,MIC,"Gardnerella swidsinskii; G. swidsinskii (Gs24) GS 9838-1(T), suspension",0.03 µg/mL
same,MIC before passaging,Gardnerella swidsinskii; G. swidsinskii (UGent BV 7.1),0.25 µg/mL
same,MIC90,Gardnerella swidsinskii; [6],0.25 µg/mL
same,MIC Range,Gardnerella swidsinskii; [6],0.03 to 0.25 µg/mL
same,MIC before passaging,Gardnerella vaginalis; G. vaginalis (ATCC 14018T),0.06 µg/mL
same,MBC99.5,Gardnerella vaginalis; G. vaginalis (BV50) UGent BV50.1,1 µg/mL
same,MIC,"Gardnerella vaginalis; G. vaginalis (BV50) UGent BV50.1, suspension",0.5 µg/mL
same,MBC99.5,Gardnerella vaginalis; G. vaginalis (BV111) UGent BV111.5,0.5 µg/mL
same,MIC,"Gardnerella vaginalis; G. vaginalis (BV111) UGent BV111.5, suspension",0.25 µg/mL
same,MBC99.5,Gardnerella vaginalis; G. vaginalis (FB049) UGent FB049-01,0.25 µg/mL
same,MIC,"Gardnerella vaginalis; G. vaginalis (FB049) UGent FB049-01, suspension",0.25 µg/mL
same,MBC99.5,Gardnerella vaginalis; G. vaginalis (FB061) UGent FB061-03,2 µg/mL
same,MIC,"Gardnerella vaginalis; G. vaginalis (FB061) UGent FB061-03, suspension",0.5 µg/mL
same,MBC99.5,Gardnerella vaginalis; G. vaginalis (Gv1) UGent 09.07,1 µg/mL
same,MIC,"Gardnerella vaginalis; G. vaginalis (Gv1) UGent 09.07, suspension",0.25 µg/mL
same,MBC99.5,Gardnerella vaginalis; G. vaginalis (Gv5) UGent 09.01,0.125 µg/mL
same,MIC,"Gardnerella vaginalis; G. vaginalis (Gv5) UGent 09.01, suspension",<0.03 µg/mL
same,MBC99.5,Gardnerella vaginalis; G. vaginalis (Gv8) UGent 25.49,0.125 µg/mL
same,MIC,"Gardnerella vaginalis; G. vaginalis (Gv8) UGent 25.49, suspension",0.03 µg/mL
same,MIC,"Gardnerella vaginalis; G. vaginalis (Gv9) ATCC 14018(T), suspension",0.06 µg/mL
same,MBC99.5,"Gardnerella vaginalis; G. vaginalis (Gv9) ATCC 14018(T), reduces CFU by 99.5% within 24 h",0.25 µg/mL
same,MIC before passaging,Gardnerella vaginalis; G. vaginalis (UGent 09.07),0.25 µg/mL
same,MIC before passaging,Gardnerella vaginalis; G. vaginalis (UGent BV50),0.5 µg/mL
same,MIC Range,"Gardnerella vaginalis; Gardnerella vaginalis, N=8 strains",<0.03 to 0.5 µg/mL
same,MIC90,"Gardnerella vaginalis; Gardnerella vaginalis, N=8 strains, MIC value for 90% of the tested strains",0.5 µg/mL
same,MBEC passaged,[2]; [4],2 µg/mL
same,MBEC passaged,[2]; [5],2 µg/mL
same,MIC passaged,passaged G. piotii,2 µg/mL
same,Susceptibility of MDZ-passaged strains grown as biofilm (FIG. 4),[3]; 72 h pre-formed biofilms treated for 24 h,susceptible
same,"MBEC, range over passaged strains","[3]; six strains passaged on MDZ or MDZ-OH, pre-formed biofilms, 24 h treatment, listed as PM-477 (H2B10)",1 to 8 µg/mL and 1 to 4 µg/mL
